Test results published in US10787640B2, “Producing mesodermal cell types and methods of using the same” (The Board of Trustees of the Leland Stanford Junior …, priority 2015, dated 2020).

Key:
[1] = test system: hESC-derived primitive streak; test: Paraxial versus lateral/cardiac mesoderm specification from primitive streak; format: cell-based, human
Method: (§1) Subsequently, day 1 anterior primitive streak was briefly washed (DMEM/F12) and differentiated towards day 2 paraxial mesoderm for 24 hours (1 μM A-83-01+3 μM CHIR99021+250 nM LDN-193189+20 ng/mL FGF2). Separately, day 1 mid primitive streak was differentiated towards day 2 lateral mesoderm for 24 hours (1 μM A-83-01+30 ng/mL BMP4+1 μM C59; with 2 μM SB-505124 sometimes used instead of A-83-01).
B) To assess whether FGF/ERK signaling was permissive for both paraxial and lateral/cardiac mesoderm specification, hESCs were differentiated into primitive streak for 24 hours, and then transferred into (i) A-83-01+DM3189 (“AD”; permissive for paraxial mesoderm) or (iii) A-83-01+BMP4+C59 (“AB+C59”; permissive for lateral/cardiac mesoderm) for 24 hours in the presence or absence of a FGF agonist (FGF2, 10-20 ng/mL), an FGFR inhibitor (PD173074, 100 nM) or a MAPK/ERK inhibitor (PD0325901, 500 nM) for 24 hours and qPCR for all experiments was conducted on day 2 (that is, after 48 total hours of hESC differentiation). To assess whether TGFβ signaling altered paraxial, intermediate and lateral/cardiac mesoderm specification, hESCs were differentiated into primitive streak for 24 hours, and then transferred into (ii) DM3189+FGF2 (“DF”; permissive for paraxial mesoderm) or (iv) BMP4+C59 (“B+C59”; permissive for lateral/cardiac mesoderm) for 24 hours in the presence of a TGFβ agonist (Activin, 10-25 ng/mL) or a TGFβR inhibitor (A-83-01, 1 μM) for 24 hours or (v) BMP4 (3 ng/mL)+FGF2 (20 ng/mL) (“B3F20”) for 24 hours in the presence of a TGFβ agonist (Activin, 3-25 ng/mL) or a TGFβR inhibitor (A-83-01, 1 μM) and qPCR for all experiments was conducted on day 2 (that is, after 48 total hours of hESC differentiation). […] Therefore, hESCs were differentiated towards primitive streak for 24 hours, and then subsequently transferred into (i) A-83-01+CHIR99021+FGF2 (ACF) in the presence or absence of one of two BMPR inhibitors (DMH1, 1 μM or LDN193189, 250 nM) for 24 hours and qPCR was conducted on day 2. Alternately, hESC-derived PS was transferred into (ii) CHIR99021+DM3189+FGF2 (CDF) for 24 hours in the presence or absence of a TGFβ agonist (25 ng/mL Activin) or one of two TGFβR inhibitors (SB-505124, 2 μM or A-83-01, 1 μM) for 24 hours and qPCR was conducted on day 2. […] E) To test the role of FGF in lateral mesoderm induction (on day 2 of hESC differentiation), NKX2.5-GFP hESCs were differentiated into mid primitive streak for 24 hours, and then were treated with BMP4+C59+SB505124 in the presence of an FGF agonist (FGF2, 20-50 ng/mL) or a FGFR inhibitor (PD173074, 100 nM) or a MAPK/ERK inhibitor (PD0325901, 500 nM) for 24 hours, and then all cultures were treated with BMP4+C59+SB505124+FGF2 for 24 hours more before being harvested on day 3 for FACS.

hESCs = test: Downstream mesoderm potential of PS induced with Activin or BMP4; format: cell-based, human
Method: as §1
E) To assess whether inducing PS in the presence of TGFβ signaling altered its downstream potential to form different kinds of mesoderm, (i) H7 hESCs were differentiated into PS with CHIR99021+FGF2+PIK90 (CFK) for 24 hours in the presence or absence of increasing amounts of Activin (10-100 ng/mL), and then were transferred into paraxial mesoderm induction conditions (A-83-01+CHIR99021+DM3189+FGF2) for 24 hrs, and qPCR was conducted or (ii) H7 hESCs were differentiated into PS with BMP4 (10 ng/mL)+CHIR99021+FGF2+PIK90 (B10CFK) for 24 hours in the presence or absence of increasing amounts of Activin (10-100 ng/mL), and then were transferred into lateral/cardiac mesoderm inductions (A-83-01+BMP4+C59) for 24 hours and qPCR was conducted. […] F) To assess whether inducing PS in the presence of BMP signaling altered its downstream potential to form different kinds of mesoderm, H7 hESCs were differentiated into PS with Activin (10 ng/mL)+CHIR99021+FGF2+PIK90 (A10CFK) for 24 hours in the presence of absence of increasing amounts of BMP4 (1-40 ng/mL), and then were (i) transferred into paraxial mesoderm induction conditions (A-83-01+CHIR99021+DM3189+FGF2) for 24 hrs, and qPCR was conducted or were (ii) transferred into lateral/cardiac mesoderm inductions (A-83-01+BMP4+C59) for 24 hours and qPCR was conducted. […] G) H7 hESCs were differentiated into anterior primitive streak (30 ng/mL Activin+4 μM CHIR99021+20 ng/mL FGF2+100 nM PIK90) in the presence or absence of BMP4 (10 ng/mL) for 24 hours, and then transferred into paraxial mesoderm induction conditions for 24 hours before TBX6 immunostaining was conducted. […] H) NKX2.5-GFP hESCs were differentiated into primitive streak with BMP4+CHIR99021+FGF2+PIK90 for 24 hours in the presence or absence of increasing doses of Activin (10-100 ng/mL), and then transferred into suboptimal lateral/cardiac mesoderm induction conditions (A-83-01+BMP4+C59, without FGF2) for 48 hours and FACS was performed after 72 hours of total differentiation to quantify NKX2.5-GFP^+ cell percentages. […] I) Efficient MIXL11^+ PS specification is highly reproducible in both anterior and mid PS differentiation conditions (“APS” and “MPS”, respectively) across 4 independent differentiation experiments, as assayed by a MIXL1-GFP knock-in reporter hESC line. Each circle or triangle represents an individual experiment and the average differentiation efficiency attained across all experiments is indicated.

Cc1cccc(-c2[nH]c(C(C)(C)C)nc2-c2ccc3c(c2)OCO3)n1 [SB-505124, 2-[4-(1,3-Benzodioxol-5-yl)-2-(1,1-dimethylethyl)-1H-imidazol-5-yl]-6-methyl-pyridine]
paraxial mesoderm induction (qPCR day 2) ([1]; ACF with DMH1 1 μM or LDN193189 250 nM, CDF with SB-505124 2 μM or A-83-01 1 μM, 24 hours): serve to induce paraxial mesoderm
NKX2.5-GFP+ cardiac mesoderm induction (FACS day 3) ([1]; BMP4 (50 ng/mL)+C59, 48 hours, SB-505124 2 μM or A-83-01 1 μM, P<0.01): increased NKX2.5-GFP^+ cardiac mesoderm induction

B1: BMP4: BMP family ligand, BMP agonist (protein, UniProt P12644 293-408, looked up)
Bone morphogenetic protein 4: SPKHHSQRARKKNKNCRRHSLYVDFSDVGWNDWIVAPPGYQAFYCHGDCPFPLADHLNSTNHAIVQTLVNSVNSSIPKACCVPTELSAISMLYLDEYDKVVLKNYQEMVVEGCGCR
paraxial mesoderm potential of PS (qPCR) (hESCs; PS induced in A10CFK with BMP4 (1-40 ng/mL)): strongly blocked paraxial mesoderm potential
lateral/cardiac mesoderm potential of PS (qPCR) (hESCs; PS induced in A10CFK with high BMP4 (40 ng/mL)): maximized lateral/cardiac mesoderm potential
TBX6 immunostaining after paraxial mesoderm induction (hESCs; anterior PS induced with BMP4 (10 ng/mL), 24 hours): larger numbers of TBX6^− clusters of non-paraxial mesoderm cells
lateral mesoderm specification (qPCR) ([1]; A8301+C59, 24 hours, BMP4 10-30 ng/mL): required to drive lateral mesoderm specification

B2: Activin: TGFβ agonist (protein, UniProt P08476 311-426, looked up)
Inhibin beta A chain: GLECDGKVNICCKKQFFVSFKDIGWNDWIIAPSGYHANYCEGECPSHIAGTSGSSLSFHSTVINHYRMRGHSPFANLKSCCVPTKLRPMSMLYYDDGQNIIKKDIQNMIVEECGCS
modifications: Inhibin beta A chain
notes: TGFβ agonist
lateral/cardiac mesoderm potential of PS (qPCR) (hESCs; PS induced in B10CFK with lower Activin (e.g., 10 ng/mL)): had maximal lateral/cardiac mesoderm potential
paraxial mesoderm potential of PS (qPCR) (hESCs; PS induced in CFK with higher Activin doses (e.g., 30 ng/mL)): instilled paraxial mesoderm potential
NKX2.5-GFP+ cell percentages (FACS, 72 hours) (hESCs; higher Activin doses (50-100 ng/mL) during PS induction): less effective
NKX2.5-GFP+ cell percentages (FACS, 72 hours) (hESCs; low to moderate Activin during PS induction): maximizes subsequent differentiation into NKX2.5-GFP^+ cardiac mesoderm
